The values below are quoted from earlier work in paper PMC1448213.

pKd: −log10 of the molar value.

The data set has as its target high affinity NGF receptor (UniProt P35739).
Chain of UniProt P35739 (P35739 33-418): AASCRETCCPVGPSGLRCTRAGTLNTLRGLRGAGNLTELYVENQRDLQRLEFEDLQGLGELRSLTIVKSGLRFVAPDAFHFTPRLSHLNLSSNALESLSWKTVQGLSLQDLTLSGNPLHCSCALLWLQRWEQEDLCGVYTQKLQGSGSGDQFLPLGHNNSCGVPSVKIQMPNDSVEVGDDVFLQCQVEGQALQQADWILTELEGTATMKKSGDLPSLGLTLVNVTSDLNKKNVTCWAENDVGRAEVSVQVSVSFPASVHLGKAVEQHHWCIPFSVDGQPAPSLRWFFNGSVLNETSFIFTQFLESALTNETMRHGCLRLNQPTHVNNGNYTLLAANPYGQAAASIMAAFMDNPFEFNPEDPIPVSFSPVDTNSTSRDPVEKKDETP

Chain of NGF (P01139 122-241): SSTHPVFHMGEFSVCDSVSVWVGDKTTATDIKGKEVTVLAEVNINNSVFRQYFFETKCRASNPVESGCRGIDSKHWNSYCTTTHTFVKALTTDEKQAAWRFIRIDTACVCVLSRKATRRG

As for NGF (from UniProt P01139), the pKd was 9.22.
